The target of assay [1] is T1, PDZ protein (GST-PDZ fusion) (Homo sapiens, UniProt Q02410).
T1 construct: made in house; host or cells: E. coli (DH5alpha, BL21 or JM109)
T1 sequence (Q02410 1-837): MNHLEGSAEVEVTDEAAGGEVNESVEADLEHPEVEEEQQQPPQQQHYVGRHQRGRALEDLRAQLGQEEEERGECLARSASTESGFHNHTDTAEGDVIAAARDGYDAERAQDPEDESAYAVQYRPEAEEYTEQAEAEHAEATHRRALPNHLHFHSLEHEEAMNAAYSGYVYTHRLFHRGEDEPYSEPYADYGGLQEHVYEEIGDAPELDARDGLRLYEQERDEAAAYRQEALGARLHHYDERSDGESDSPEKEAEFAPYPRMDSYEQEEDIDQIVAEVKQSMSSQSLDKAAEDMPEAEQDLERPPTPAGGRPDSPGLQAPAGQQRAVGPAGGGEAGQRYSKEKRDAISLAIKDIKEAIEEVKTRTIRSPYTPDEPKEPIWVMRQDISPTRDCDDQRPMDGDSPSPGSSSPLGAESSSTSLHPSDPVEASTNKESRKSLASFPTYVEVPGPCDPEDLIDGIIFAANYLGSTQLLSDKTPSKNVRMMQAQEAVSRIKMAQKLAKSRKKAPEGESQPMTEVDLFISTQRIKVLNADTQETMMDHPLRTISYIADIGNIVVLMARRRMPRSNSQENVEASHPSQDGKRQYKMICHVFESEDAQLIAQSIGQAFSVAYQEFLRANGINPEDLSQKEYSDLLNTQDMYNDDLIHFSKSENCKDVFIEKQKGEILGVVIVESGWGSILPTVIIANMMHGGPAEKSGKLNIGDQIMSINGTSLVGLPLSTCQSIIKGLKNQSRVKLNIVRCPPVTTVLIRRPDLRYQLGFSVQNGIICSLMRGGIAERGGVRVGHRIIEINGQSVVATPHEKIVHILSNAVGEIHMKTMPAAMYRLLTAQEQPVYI
The assay is described as follows: G' assay (10 uM PL peptide), results of TABLE 7 and TABLE 12. Type of assay: binding. The essentials:
(§1)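 Biotinylated PL peptides at 10 uM (vs 20 uM in G^0 assay) bound to GST-PDZ fusions; PDZ protein at 5 ug/ml unless another concentration listed. Bound peptide read as A450 nm, classified 0–5 (0 = A450 0; 5 = A450 >4 repeated).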

In assay [2] the target is T2, PDZ protein (GST-PDZ fusion) (Homo sapiens, UniProt O15018).
T2 construct: made in house; host or cells: E. coli (DH5alpha, BL21 or JM109)
Described as above. Particulars: PDZ AIPC, PDZ Domain 1. It is filed as binding. The essentials:
as §1

Ends that are not written are not given here. Peptide text beside a SMILES is read from it. * marks the point of attachment. Biotin = O=C1N[C@H]2[C@H](CS[C@H]2CCCCC(=O)*)N1

The source of these data is patent US20050282743A1, “Molecular interactions in cells” (Arbor Vita Corporation, priority 2001, published 2005).

T2 sequence (O15018 whole entry, the tested form may be a part): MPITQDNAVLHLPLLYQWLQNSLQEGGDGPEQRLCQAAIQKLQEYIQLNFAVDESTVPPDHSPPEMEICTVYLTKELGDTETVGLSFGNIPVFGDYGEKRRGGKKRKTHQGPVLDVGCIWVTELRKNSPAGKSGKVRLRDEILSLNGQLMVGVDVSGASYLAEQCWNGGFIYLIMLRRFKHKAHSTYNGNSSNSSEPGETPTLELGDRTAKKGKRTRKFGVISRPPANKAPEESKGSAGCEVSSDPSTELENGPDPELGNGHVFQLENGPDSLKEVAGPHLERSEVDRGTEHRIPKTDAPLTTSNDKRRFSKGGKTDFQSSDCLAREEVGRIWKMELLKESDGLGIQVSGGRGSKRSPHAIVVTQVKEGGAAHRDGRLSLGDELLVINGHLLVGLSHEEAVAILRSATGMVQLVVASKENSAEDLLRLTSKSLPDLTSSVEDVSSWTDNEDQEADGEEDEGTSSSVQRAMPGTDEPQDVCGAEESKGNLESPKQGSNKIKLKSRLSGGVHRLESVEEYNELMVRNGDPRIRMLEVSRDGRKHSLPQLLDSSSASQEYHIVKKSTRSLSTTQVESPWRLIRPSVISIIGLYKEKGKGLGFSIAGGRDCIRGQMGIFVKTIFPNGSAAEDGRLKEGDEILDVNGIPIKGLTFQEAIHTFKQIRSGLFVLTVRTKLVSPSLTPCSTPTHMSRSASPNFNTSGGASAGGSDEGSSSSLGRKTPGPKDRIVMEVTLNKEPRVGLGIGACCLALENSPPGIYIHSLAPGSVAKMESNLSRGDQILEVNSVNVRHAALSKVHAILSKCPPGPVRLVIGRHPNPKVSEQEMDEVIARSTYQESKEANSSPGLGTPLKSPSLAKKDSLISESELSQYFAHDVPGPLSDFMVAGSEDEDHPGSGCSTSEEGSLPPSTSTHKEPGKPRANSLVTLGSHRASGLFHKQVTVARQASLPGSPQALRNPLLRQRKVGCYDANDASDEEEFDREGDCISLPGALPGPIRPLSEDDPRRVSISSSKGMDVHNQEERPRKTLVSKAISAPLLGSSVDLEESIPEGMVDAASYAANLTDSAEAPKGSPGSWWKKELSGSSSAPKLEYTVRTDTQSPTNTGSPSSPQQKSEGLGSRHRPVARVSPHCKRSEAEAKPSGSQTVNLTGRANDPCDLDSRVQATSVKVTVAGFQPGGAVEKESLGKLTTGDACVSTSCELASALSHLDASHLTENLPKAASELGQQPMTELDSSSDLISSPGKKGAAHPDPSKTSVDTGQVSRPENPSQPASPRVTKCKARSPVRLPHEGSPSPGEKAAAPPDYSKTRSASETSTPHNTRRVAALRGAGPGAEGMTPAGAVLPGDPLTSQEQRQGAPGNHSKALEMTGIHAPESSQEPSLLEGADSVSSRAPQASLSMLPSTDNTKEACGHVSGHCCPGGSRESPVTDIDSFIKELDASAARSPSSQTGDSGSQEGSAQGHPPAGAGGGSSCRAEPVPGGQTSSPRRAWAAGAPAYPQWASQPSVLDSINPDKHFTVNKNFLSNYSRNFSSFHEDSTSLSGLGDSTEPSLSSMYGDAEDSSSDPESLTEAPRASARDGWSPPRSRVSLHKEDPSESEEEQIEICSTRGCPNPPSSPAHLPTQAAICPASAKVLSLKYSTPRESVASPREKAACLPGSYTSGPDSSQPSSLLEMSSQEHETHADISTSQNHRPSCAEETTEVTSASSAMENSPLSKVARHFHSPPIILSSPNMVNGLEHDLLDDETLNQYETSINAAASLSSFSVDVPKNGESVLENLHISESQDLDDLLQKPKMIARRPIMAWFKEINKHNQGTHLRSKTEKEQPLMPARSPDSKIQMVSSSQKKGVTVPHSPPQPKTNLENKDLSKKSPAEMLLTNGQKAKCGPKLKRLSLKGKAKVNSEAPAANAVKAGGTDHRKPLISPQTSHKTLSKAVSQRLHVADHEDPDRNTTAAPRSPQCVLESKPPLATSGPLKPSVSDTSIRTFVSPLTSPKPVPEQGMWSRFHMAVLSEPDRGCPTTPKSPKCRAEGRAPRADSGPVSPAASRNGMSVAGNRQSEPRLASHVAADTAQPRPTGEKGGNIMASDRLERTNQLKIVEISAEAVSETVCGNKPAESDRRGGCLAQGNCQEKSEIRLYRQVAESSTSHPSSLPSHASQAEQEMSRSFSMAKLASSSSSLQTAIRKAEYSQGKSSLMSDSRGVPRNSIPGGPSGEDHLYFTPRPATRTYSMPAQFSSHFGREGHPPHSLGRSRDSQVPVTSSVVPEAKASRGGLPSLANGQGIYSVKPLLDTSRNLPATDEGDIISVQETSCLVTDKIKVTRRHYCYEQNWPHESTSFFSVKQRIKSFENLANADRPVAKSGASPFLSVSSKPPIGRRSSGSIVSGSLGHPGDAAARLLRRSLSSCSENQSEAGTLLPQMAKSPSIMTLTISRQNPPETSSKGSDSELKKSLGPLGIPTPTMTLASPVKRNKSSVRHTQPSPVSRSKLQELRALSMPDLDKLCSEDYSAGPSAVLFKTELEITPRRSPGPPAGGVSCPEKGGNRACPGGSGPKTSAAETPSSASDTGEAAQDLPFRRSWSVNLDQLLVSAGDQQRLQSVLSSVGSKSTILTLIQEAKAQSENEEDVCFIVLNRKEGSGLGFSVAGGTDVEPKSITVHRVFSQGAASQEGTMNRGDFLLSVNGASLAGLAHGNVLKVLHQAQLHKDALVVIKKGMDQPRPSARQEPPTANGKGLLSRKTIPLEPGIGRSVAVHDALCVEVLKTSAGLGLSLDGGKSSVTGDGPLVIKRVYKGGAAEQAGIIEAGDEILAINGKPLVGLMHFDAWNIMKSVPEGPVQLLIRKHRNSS

Turning to “LNETTETQRTLLNGDLQTSI (Biotin-LNETTETQRTLLNGDLQTSI) [SSTR2 (somatostatin recepor 2)]”, the Classification in assay [1] (PDZ Mint 1, PDZ Domain 1, 2) is reported as 1 (A450 nm 0-1); in assay [1] (PDZ Mint 1, PDZ Domain 2) it was 1 (A450 nm 0-1).

On to “ISGTPTSTMVHGMTSSSSVV (Biotin-ISGTPTSTMVHGMTSSSSVV) [Clasp-2]”, for which the Classification is 1 (A450 nm 0-1) in assay [1] (PDZ Mint 1, PDZ Domain 1, 2) and 1 (A450 nm 0-1) in assay [2].

Turning to CKR5_HUMAN (ERASSVYTRSTGEQEISVGL), in assay [1] (PDZ Mint 1, PDZ Domain 1, 2), the Classification is listed as 1 (A450 nm 0-1).

For the compound “ALVLIAFCIIRRRPSAYQAL (Biotin-ALVLIAFCIIRRRPSAYQAL) [CD68]”, the Classification in assay [1] (PDZ Mint 1, PDZ Domain 1, 2) is on record as 1 (A450 nm 0-1); in assay [1] (PDZ Mint 1, PDZ Domain 2), 2 (A450 nm 1-2).

As to “KTMPAATYRLLTGQEQPVYL (Biotin-KTMPAATYRLLTGQEQPVYL) [MINT-3]”, the Classification is given as 2 (A450 nm 1-2) in assay [1] (PDZ Mint 1, PDZ Domain 1, 2) and 2 (A450 nm 1-2) in assay [1] (PDZ Mint 1, PDZ Domain 2).

As to “RNIEEVYVGGKQVVPFSSSV (Biotin-RNIEEVYVGGKQVVPFSSSV) [Nedasin (s-form)]”, in assay [1] (PDZ Mint 1, PDZ Domain 1, 2), the Classification is recorded as 1 (A450 nm 0-1).

For the compound `CC[C@H](C)[C@H](NC(=O)[C@H](C)NC(=O)[C@H](CC(C)C)NC(=O)[C@H](Cc1c[nH]c2ccccc12)NC(=O)[C@H](Cc1c[nH]cn1)NC(=O)[C@H](CCC(N)=O)NC(=O)[C@H](CC(C)C)NC(=O)[C@H](CCC(N)=O)NC(=O)[C@H](Cc1ccccc1)NC(=O)[C@H](CCC(N)=O)NC(=O)[C@H](CCCNC(=N)N)NC(=O)[C@@H](NC(=O)[C@H](CC(=O)O)NC(=O)[C@H](CCCNC(=N)N)NC(=O)[C@H](CCC(N)=O)NC(=O)[C@H](C)NC(=O)[C@@H](NC(=O)[C@H](CC(C)C)NC(=O)[C@H](Cc1c[nH]cn1)NC(=O)[C@H](Cc1c[nH]cn1)NC(=O)CCCC[C@@H]1SC[C@@H]2NC(=O)N[C@@H]21)C(C)C)[C@@H](C)CC)C(=O)O` [noradrenaline transporter] (Biotin-HHLVAQRDIRQFQLQHWLAI-OH; C-terminus assumed), the Classification in assay [1] (PDZ Mint 1, PDZ Domain 1, 2) is given as 3 (A450 nm 2-3); in assay [2] it was 2 (A450 nm 1-2).

On to “A2AA_HUMAN (modified) (Biotin-HDFRRAFKKILARGDRKRIV; not fully specified)”, for which the Classification in assay [1] (PDZ Mint 1, PDZ Domain 1) is listed as 1 (A450 nm 0-1); in assay [2] it was 2 (A450 nm 1-2).

On to “A2AC_HUMAN (Modified) (Biotin-DFRPSFKHILFRRARRGFRQ; not fully specified)”, for which the Classification in assay [1] (PDZ Mint 1, PDZ Domain 2) was 3 (A450 nm 2-3).

`CC[C@H](C)[C@H](NC(=O)CNC(=O)[C@H](CO)NC(=O)[C@H](Cc1ccccc1)NC(=O)[C@@H](NC(=O)[C@H](CS)NC(=O)CNC(=O)CNC(=O)[C@H](C)NC(=O)[C@@H]1CCCN1C(=O)[C@@H](NC(=O)[C@@H]1CCCN1C(=O)CCCC[C@@H]1SC[C@@H]2NC(=O)N[C@@H]21)[C@@H](C)CC)[C@@H](C)O)C(=O)N[C@@H](Cc1ccccc1)C(=O)N1CCC[C@H]1C(=O)N[C@H](C(=O)N[C@@H](CC(C)C)C(=O)N[C@H](C(=O)N[C@@H](CO)C(=O)N1CCC[C@H]1C(=O)N[C@@H](CC(C)C)C(=O)O)[C@@H](C)O)[C@@H](C)O` [KIA 1481] (Biotin-PIPAGGCTFSGIFPTLTSPL-OH; C-terminus assumed): the Classification in assay [1] (PDZ Mint 1, PDZ Domain 1, 2) was 3 (A450 nm 2-3); in assay [1] (PDZ Mint 1, PDZ Domain 2) it was 3 (A450 nm 2-3).

Take “PPATPSPRLALPAHHNATRL (Biotin-PPATPSPRLALPAHHNATRL) [Na+/Pi cotransporter 2]”: the Classification in assay [1] (PDZ Mint 1, PDZ Domain 2) is 1 (A450 nm 0-1).
